Experiments:
c-Src SH2 = assay: SH2 binding enrichment of the phosphorylated peptide, bacterial display (enrichment ratio); higher = better substrate or ligand; peptides without Tyr show the background
Grb2 SH2 = Grb2 SH2 (UniProt P62993); assay: as above
SHP2-C SH2 = assay: as above
EPHB2 = EPHB2 (UniProt P29323); assay: phosphorylation enrichment, bacterial display (enrichment ratio); higher = better substrate or ligand; peptides without Tyr show the background
c-Abl (mouse) = assay: as above
Hck = Hck (UniProt P08631); assay: as above
Jak2 = Jak2 (UniProt O60674); assay: as above
FGFR1 = FGFR1 (UniProt P11362); assay: as above
AncSZ = assay: as above
FGFR3 = FGFR3 (UniProt P22607); assay: as above
c-Src = assay: as above
Fes = Fes (UniProt P07332); assay: as above
EPHB1 = EPHB1 (UniProt P54762); assay: as above
Fyn = Fyn (UniProt P06241); assay: as above
Fer (mouse) = assay: as above
MERTK = MERTK (UniProt Q12866); assay: as above
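Wherever SH2 binding enrichment of the phosphorylated peptide, bacterial display is given: peptide library displayed on the E. coli surface as eCPX fusions, selected cells deep-sequenced, score is each peptide's frequency after selection divided by its frequency in the input.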
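Wherever phosphorylation enrichment, bacterial display is given: 11-residue human phosphosite peptides and single-mutation variants displayed on the E. coli surface, counted by deep sequencing, each peptide's frequency after selection divided by its frequency in the unselected input library; frequency after pTyr selection over input frequency; kinase dosed for 20-30% of maximal phosphorylation in three min.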

Chain of Fes (P07332 whole entry, looked up): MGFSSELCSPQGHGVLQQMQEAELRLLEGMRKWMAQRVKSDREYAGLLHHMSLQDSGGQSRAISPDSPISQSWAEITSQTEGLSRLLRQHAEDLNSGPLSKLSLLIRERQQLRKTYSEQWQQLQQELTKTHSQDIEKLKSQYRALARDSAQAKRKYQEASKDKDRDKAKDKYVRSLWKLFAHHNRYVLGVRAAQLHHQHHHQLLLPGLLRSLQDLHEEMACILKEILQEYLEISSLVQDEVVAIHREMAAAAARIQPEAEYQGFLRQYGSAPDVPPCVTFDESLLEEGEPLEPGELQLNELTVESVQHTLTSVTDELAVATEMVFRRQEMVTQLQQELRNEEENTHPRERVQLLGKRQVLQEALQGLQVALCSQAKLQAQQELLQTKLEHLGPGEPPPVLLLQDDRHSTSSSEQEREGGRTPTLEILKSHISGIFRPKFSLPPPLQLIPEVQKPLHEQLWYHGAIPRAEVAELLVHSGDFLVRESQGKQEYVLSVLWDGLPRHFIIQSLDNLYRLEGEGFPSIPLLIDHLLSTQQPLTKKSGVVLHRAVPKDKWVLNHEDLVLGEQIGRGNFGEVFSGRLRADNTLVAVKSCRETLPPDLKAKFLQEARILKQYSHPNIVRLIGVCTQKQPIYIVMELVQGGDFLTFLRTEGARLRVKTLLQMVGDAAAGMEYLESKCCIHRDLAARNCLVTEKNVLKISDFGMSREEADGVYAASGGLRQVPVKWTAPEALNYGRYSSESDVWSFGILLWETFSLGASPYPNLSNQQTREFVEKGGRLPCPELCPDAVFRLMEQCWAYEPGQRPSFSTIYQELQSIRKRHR
Chain of Hck (P08631 whole entry, looked up): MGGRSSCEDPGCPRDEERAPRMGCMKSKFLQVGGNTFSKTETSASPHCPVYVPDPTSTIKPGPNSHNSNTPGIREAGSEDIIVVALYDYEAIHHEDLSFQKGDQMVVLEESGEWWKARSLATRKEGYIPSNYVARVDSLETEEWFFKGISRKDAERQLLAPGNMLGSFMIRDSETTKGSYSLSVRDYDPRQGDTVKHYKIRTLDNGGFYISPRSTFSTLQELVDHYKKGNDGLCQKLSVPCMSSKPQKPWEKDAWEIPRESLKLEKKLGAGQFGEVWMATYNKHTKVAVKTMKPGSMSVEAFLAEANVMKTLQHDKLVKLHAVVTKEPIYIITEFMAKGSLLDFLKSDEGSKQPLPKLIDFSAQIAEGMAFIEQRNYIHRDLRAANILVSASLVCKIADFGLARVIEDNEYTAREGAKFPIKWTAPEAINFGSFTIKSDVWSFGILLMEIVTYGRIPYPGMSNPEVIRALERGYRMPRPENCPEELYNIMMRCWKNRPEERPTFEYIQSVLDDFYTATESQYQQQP
Chain of FGFR1 (P11362 whole entry, looked up): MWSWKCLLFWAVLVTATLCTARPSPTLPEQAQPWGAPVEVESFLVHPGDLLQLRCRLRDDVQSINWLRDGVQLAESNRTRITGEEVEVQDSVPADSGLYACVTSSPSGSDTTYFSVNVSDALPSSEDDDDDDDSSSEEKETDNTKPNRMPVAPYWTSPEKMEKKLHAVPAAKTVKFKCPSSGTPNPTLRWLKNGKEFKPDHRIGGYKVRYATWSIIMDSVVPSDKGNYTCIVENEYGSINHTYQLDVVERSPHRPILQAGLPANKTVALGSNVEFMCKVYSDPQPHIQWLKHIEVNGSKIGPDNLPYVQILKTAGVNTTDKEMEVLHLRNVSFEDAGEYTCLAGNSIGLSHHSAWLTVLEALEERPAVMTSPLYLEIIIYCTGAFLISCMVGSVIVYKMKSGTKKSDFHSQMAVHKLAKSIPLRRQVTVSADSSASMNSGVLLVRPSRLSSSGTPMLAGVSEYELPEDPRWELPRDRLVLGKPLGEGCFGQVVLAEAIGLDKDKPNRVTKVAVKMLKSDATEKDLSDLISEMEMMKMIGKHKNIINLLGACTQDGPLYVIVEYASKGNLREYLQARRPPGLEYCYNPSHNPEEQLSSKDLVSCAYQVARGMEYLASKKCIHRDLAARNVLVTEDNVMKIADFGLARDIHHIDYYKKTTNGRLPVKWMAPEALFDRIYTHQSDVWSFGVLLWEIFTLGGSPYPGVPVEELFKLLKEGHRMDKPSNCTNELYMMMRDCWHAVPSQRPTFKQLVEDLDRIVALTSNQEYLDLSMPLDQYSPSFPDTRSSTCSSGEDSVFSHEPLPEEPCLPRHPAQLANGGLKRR
Chain of Fyn (P06241 whole entry, looked up): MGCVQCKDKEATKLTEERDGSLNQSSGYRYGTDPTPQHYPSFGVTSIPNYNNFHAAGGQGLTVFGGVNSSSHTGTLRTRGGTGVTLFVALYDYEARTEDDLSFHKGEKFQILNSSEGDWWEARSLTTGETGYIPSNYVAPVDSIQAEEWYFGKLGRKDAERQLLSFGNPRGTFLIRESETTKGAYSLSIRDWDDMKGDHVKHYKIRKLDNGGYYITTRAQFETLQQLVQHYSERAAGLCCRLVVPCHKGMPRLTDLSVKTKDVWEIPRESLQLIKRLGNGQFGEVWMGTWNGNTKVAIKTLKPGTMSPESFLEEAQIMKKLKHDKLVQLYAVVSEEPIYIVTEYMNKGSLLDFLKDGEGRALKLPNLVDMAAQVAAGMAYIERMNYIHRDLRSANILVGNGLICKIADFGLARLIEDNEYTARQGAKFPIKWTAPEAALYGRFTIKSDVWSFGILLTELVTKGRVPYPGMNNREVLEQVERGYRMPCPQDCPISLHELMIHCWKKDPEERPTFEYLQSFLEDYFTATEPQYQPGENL
Chain of EPHB2 (P29323 whole entry, looked up): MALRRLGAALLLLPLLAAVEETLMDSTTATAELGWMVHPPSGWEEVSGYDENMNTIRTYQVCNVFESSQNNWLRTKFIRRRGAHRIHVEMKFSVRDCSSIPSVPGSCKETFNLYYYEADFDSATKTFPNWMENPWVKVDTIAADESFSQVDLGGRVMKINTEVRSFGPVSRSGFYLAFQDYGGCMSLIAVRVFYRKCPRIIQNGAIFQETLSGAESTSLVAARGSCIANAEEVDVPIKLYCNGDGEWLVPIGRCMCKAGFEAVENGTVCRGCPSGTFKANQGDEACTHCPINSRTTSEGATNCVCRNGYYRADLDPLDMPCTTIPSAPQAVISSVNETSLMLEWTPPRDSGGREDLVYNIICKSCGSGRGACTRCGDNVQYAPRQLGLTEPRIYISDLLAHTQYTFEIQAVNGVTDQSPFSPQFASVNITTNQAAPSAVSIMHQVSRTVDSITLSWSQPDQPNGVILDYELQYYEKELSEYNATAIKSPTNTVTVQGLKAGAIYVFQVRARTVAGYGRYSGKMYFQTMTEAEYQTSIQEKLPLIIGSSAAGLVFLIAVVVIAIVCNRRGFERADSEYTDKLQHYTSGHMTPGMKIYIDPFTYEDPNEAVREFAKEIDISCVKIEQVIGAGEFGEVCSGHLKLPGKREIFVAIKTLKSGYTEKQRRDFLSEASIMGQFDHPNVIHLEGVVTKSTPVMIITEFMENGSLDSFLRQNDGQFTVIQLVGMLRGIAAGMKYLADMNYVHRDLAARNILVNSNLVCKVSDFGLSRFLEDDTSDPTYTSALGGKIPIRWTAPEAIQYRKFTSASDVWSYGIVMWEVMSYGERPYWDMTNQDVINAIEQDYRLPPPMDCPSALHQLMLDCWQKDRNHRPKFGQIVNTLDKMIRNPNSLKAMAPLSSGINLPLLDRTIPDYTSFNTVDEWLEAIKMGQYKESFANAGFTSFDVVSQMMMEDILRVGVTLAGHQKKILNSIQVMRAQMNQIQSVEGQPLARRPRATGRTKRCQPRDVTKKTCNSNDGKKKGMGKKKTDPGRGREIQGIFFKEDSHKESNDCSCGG
Chain of FGFR3 (P22607 whole entry, looked up): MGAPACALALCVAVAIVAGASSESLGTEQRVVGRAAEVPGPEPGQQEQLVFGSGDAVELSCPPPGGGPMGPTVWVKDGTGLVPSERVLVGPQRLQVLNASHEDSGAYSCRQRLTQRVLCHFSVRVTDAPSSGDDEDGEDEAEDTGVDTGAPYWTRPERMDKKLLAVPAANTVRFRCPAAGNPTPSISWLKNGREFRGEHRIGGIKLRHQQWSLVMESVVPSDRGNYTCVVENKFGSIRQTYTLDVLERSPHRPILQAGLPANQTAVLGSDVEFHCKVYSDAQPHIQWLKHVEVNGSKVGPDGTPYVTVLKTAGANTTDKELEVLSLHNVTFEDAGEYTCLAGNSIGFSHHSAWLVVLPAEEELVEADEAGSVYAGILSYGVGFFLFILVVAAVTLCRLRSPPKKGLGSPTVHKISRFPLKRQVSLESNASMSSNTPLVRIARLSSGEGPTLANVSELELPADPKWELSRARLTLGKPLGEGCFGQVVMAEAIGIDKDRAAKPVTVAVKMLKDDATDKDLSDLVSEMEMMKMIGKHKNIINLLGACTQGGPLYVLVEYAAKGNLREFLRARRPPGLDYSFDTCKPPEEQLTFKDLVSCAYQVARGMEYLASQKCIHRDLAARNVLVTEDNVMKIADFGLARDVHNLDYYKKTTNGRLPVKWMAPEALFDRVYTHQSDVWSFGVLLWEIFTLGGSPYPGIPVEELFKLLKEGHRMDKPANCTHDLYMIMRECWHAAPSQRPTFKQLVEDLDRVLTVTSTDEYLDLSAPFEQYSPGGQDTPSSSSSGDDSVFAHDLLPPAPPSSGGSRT

| SH2 binding enrichment (c-Src SH2) | SH2 binding enrichment (Grb2 SH2) | SH2 binding enrichment (SHP2-C SH2) | Sequence | phosphorylation enrichment (EPHB2) | phosphorylation enrichment (c-Abl (mouse)) | phosphorylation enrichment (Hck) | phosphorylation enrichment (Jak2) | phosphorylation enrichment (FGFR1) | phosphorylation enrichment (AncSZ) | phosphorylation enrichment (FGFR3) | phosphorylation enrichment (c-Src) | phosphorylation enrichment (Fes) | phosphorylation enrichment (EPHB1) | phosphorylation enrichment (Fyn) | phosphorylation enrichment (Fer (mouse)) | phosphorylation enrichment (MERTK) |
| --- | --- | --- | --- | --- | --- | --- | --- | --- | --- | --- | --- | --- | --- | --- | --- | --- |
| 0.707 | 0.82 | 0.914 | SVVVSYEPPEV [TP53_Y220_P219S] | 0.579 | 0.749 | 0.632 | 0.808 | 0.475 | 1.23 | 0.594 | 0.432 | 0.918 | 0.519 | 0.587 | 0.515 | 0.434 |
| 0.563 | 0.794 | 0.757 | HTLMKYTDGDQ [PUS7L_Y94_I92M] | 0.634 | 1.08 | 0.682 | 1.26 | 0.813 | 1.34 | 0.897 | 0.788 | 1.48 | 1.17 | 0.595 | 0.666 | 0.463 |
| 0.522 | 1.07 | 0.668 | EKKKYYDAKIE [CASP5_Y104_T106A] | 0.326 | 0.609 | 0.449 | 0.912 | 0.526 | 0.777 | 0.781 | 0.64 | 0.978 | 0.679 | 0.588 | 0.475 | 0.473 |
| 0.659 | 0.904 | 1.25 | QLQVFYATRDQ [MIPEP_Y579_L582R] | 0.805 | 1.2 | 1.14 | 1.96 | 0.86 | 1.27 | 1 | 0.977 | 1.71 | 0.787 | 0.881 | 0.59 | 0.567 |
| 0.475 | 0.717 | 0.629 | ITRDEYPSNPM [CEMIP2_Y1015] | 0.369 | 0.414 | 0.352 | 0.497 | 0.426 | 0.688 | 0.467 | 0.345 | 0.589 | 0.413 | 0.413 | 0.344 | 0.329 |
| 1.99 | 0.905 | 1 | SSYSGYIMMPN [LEF1_Y114] | 1.09 | 0.486 | 0.51 | 5.39 | 3.79 | 0.858 | 2.38 | 0.684 | 0.718 | 0.923 | 0.571 | 0.604 | 2.47 |
| 0.685 | 1.11 | 0.881 | SISLRYEGRVY [ABL1_Y167] | 0.563 | 0.803 | 0.506 | 1.06 | 0.484 | 1.07 | 0.776 | 0.394 | 1.09 | 0.606 | 0.513 | 0.546 | 0.428 |
| 0.575 | 0.786 | 0.666 | HFVDEYDPTIE [KRAS_Y32] | 0.99 | 1.33 | 0.828 | 1.54 | 0.884 | 1.74 | 0.888 | 0.779 | 1.79 | 0.784 | 0.605 | 0.886 | 0.724 |
| 1.06 | 0.766 | 0.713 | SARSAYQEAMD [SFN_Y151] | 0.584 | 0.628 | 0.445 | 0.638 | 0.418 | 0.81 | 0.539 | 0.353 | 0.854 | 0.474 | 0.495 | 0.402 | 0.38 |
| 0.472 | 0.887 | 0.654 | CSSGGYEPRGR [FUS_Y239_R234C] | 0.439 | 0.528 | 0.436 | 0.594 | 0.432 | 0.801 | 0.547 | 0.353 | 0.861 | 0.411 | 0.411 | 0.475 | 0.396 |
| 0.433 | 0.848 | 0.521 | IGSHAYGDQYR [IDH1_Y135_R132S] | 0.419 | 0.576 | 0.342 | 0.554 | 0.45 | 0.583 | 0.517 | 0.43 | 0.619 | 0.497 | 0.464 | 0.374 | 0.406 |
| 1.1 | 2.05 | 1.49 | LVMFIYVIFGM [SCN1A_Y1684_A1685V] | 0.615 | 0.468 | 0.571 | 0.477 | 0.583 | 0.694 | 0.604 | 0.275 | 0.673 | 0.496 | 0.517 | 0.366 | 0.365 |
| 0.521 | 0.976 | 0.923 | IVKAYYVRARA [AIPL1_Y268] | 0.47 | 0.512 | 0.419 | 0.743 | 0.466 | 1.01 | 0.471 | 0.361 | 0.936 | 0.358 | 0.466 | 0.396 | 0.502 |
| 0.402 | 0.768 | 0.442 | QNTGDDFDLFG [PTPN11_Y62_Y62D_YF] | 1.02 | 1.11 | 0.748 | 1.6 | 0.936 | 1.7 | 1.1 | 0.689 | 1.75 | 0.599 | 0.54 | 0.7 | 0.634 |
